The numbers were not newly measured in paper PMC5242463, which cites them from elsewhere.

As usually defined, the Kd is the free concentration of one partner at which half of the binding sites on the other are occupied at equilibrium, for simple one-to-one binding.

This data set has as its target Trigger Factor (Escherichia coli) (UniProt P0A850).

Sequence of Trigger Factor (Escherichia coli) (P0A850 whole entry): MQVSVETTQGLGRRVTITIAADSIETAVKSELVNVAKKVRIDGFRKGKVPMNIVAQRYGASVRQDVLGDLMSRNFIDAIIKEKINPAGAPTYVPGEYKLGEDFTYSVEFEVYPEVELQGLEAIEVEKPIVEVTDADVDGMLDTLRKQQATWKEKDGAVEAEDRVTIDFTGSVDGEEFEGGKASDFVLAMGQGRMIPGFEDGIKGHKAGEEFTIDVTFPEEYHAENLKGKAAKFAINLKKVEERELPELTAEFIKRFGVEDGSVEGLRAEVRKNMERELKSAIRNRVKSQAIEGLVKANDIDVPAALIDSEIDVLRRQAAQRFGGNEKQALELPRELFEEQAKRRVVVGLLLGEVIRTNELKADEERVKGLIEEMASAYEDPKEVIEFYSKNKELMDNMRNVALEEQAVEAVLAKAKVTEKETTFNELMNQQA
Sequence of Nascent Lep (P00803 whole entry): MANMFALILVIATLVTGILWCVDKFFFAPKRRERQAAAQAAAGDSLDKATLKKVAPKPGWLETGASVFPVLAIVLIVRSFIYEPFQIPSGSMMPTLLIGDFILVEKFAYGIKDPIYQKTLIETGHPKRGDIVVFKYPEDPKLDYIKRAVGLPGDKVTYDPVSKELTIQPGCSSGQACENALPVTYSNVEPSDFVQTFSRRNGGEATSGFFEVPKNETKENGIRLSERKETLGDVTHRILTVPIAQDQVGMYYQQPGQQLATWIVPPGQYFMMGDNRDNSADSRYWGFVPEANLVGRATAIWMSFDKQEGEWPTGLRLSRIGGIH

As for Nascent Lep (from UniProt P00803), the Kd was 0.311 µM.
